Key:
[1] = target: bacteriophage T4 major capsid protein gp23 (bacteriophage T4); test: cryo-EM structure; purified emptied prolate heads of a gp13 amber mutant in 50 mM Tris pH 7.5, 1 mM MgCl2, 100 mM NaCl; fivefold symmetry, 10 Å; gp20 structure and a gp23 model fitted into the map
[2] = target: bacteriophage T4 portal protein gp20, construct gp20-N74 (residues 74–524) (bacteriophage T4) (UniProt P13334); test: cryo-EM 2D classification of particles; oligomeric states counted in cryo-EM data of purified portals; gp20-N74 after a single gel filtration (narrow 500 μl fraction)
[3] = target: bacteriophage T4 portal protein gp20, construct gp20-N74 (residues 74–524) (bacteriophage T4) (UniProt P13334); test: cryo-EM structure; single particles of gp20-N74 after two gel filtrations, 1 mg/ml in 20 mM Tris-HCl pH 7.8, 400 mM NaCl, 5 mM EDTA, 0.3% octyl-β-glucoside; 12-fold symmetry imposed, 3.6 Å
[4] = target: gp20 mutant in which the tunnel loop (residues 377–388) had been deleted (bacteriophage T4); test: cryo-EM 2D classification of particles; oligomeric states counted in cryo-EM data of purified portals; gp20-N74 after a single gel filtration (narrow 500 μl fraction)
[5] = target: the molecule itself; test: cryo-EM structure; purified emptied prolate heads of a gp13 amber mutant in 50 mM Tris pH 7.5, 1 mM MgCl2, 100 mM NaCl; fivefold symmetry, 10 Å; gp20 structure and a gp23 model fitted into the map

bacteriophage T4 major capsid protein gp23 (natural protein)
stoichiometry N [1]: 6

bacteriophage T4 portal protein gp20, construct gp20-N74 (residues 74–524) (from UniProt P13334 74-524) (domain or fragment)
percent of particles that are 11-mers [2]: 0.1% | percent of particles that are 12-mers [2]: 90% | percent of particles that are 13-mers [2]: 9.9% | percent of particles that are 12-mers [3]: 95% | percent of particles that are 13-mers [3]: 5% | stoichiometry N [3]: 12

gp20 mutant in which the tunnel loop (residues 377–388) had been deleted (domain or fragment)
percent of particles that are 11-mers [4]: 28% | percent of particles that are 13-mers [4]: 4%

B1: bacteriophage T4 vertex protein gp24 (natural protein, UniProt P19896 11-427, looked up)
chain: STTTNSNSIGRPNLVALTRATTKLIYSDIVATQRTNQPVAAFYGIKYLNPDNEFTFKTGATYAGEAGYVDREQITELTEESKLTLNKGDLFKYNNIVYKVLEDTPFATIEESDLELALQIAIVLLKVRLFSDAASTSKFESSDSEIADARFQINKWQTAVKSRKLKTGITVELAQDLEANGFDAPNFLEDLLATEMADEINKDILQSLITVSKRYKVTGITDSGFIDLSYASAPEAGRSLYRMVCEMVSHIQKESTYTATFCVASARAAAILAASGWLKHKPEDDKYLSQNAYGFLANGLPLYCDTNSPLDYVIVGVVENIGEKEIVGSIFYAPYTEGLDLDDPEHVGAFKVVVDPESLQPSIGLLVRYALSANPYTVAKDEKEARIIDGGDMDKMAGRSDLSVLLGVKLPKIIIDE
notes: capsid vertex protein gp24 of bacteriophage T4, as present in fully expanded heads; source: emptied prolate heads of a T4 gp13 amber mutant, purified
stoichiometry N [5]: 5
